Experiment [1] addresses RFdiffusion de novo PTH binder (picomolar). The experiment in a line: affinity purification with mass spectrometry; binder-conjugated beads capture PTH from human plasma supplemented with PTH; recovery by LC-MS/MS of the N-terminal tryptic peptide; triplicates.
Experiment [2] has the same target. Description: affinity purification with mass spectrometry; binder-conjugated magnetic beads capture the peptide from buffer; recovery by LC-MS/MS (tryptic N-terminal peptide for PTH, intact peptide for GCG); triplicates.

Ends that are not written are not given here.

B1: parathyroid hormone (PTH) (peptide)
peptide: SVSEIQLMHNLGKHLNSMERVEWLRKKLQDVHNF
modifications: also: fluorescently labelled, label and position not given here
In the case of B1, the percent recovery in experiment [1] was 43%; in experiment [2], 53%.

(Values after paper PMC10849960.)
